Here are results for five proteins from paper PMC12445222.

Substrate in data set [1]: ClCCCl
Kind of data set: ITC initial rates, steady-state fit with substrate inhibition. The class given is biochemical, Xanthobacter autotrophicus. As to conditions: 100 mM glycine buffer, pH 8.6, 15 °C.

Substrate in data set [2]: ClCCCl
The data set is described as follows: ITC initial rates, steady-state fit. The class given is biochemical, Xanthobacter autotrophicus. The conditions noted are these: 100 mM glycine buffer, pH 8.6, 15 °C.

B1: haloalkane dehalogenase (DhlA) (Xanthobacter autotrophicus) (protein)
chain: MINAIRTPDQRFSNLDQYPFSPNYLDDLPGYPGLRAHYLDEGNSDAEDVFLCLHGEPTWSYLYRKMIPVFAESGARVIAPDFFGFGKSDKPVDEEDYTFEFHRNFLLALIERLDLRNITLVVQDWGGFLGLTLPMADPSRFKRLIIMNACLMTDPVTQPAFSAFVTQPADGFTAWKYDLVTPSDLRLDQFMKRWAPTLTEAEASAYAAPFPDTSYQAGVRKFPKMVAQRDQACIDISTEAISFWQNDWNGQTFMAIGMKDKLLGPDVMYPMKALINGCPEPLEIADAGHFVQEFGEQVAREALKHFAETE
B1: in data set [1], the Km is 0.06 ± 0.01 mM and the kcat was determined as 0.27 ± 0.01 s⁻¹.

B2: haloalkane dehalogenase (DhlA) (Xanthobacter autotrophicus; F128L/L262V) (protein)
chain: MINAIRTPDQRFSNLDQYPFSPNYLDDLPGYPGLRAHYLDEGNSDAEDVFLCLHGEPTWSYLYRKMIPVFAESGARVIAPDFFGFGKSDKPVDEEDYTFEFHRNFLLALIERLDLRNITLVVQDWGGLLGLTLPMADPSRFKRLIIMNACLMTDPVTQPAFSAFVTQPADGFTAWKYDLVTPSDLRLDQFMKRWAPTLTEAEASAYAAPFPDTSYQAGVRKFPKMVAQRDQACIDISTEAISFWQNDWNGQTFMAIGMKDKVLGPDVMYPMKALINGCPEPLEIADAGHFVQEFGEQVAREALKHFAETE
For the protein B2, in data set [2], the Km came to 1.04 ± 0.06 mM and the kcat is 0.18 ± 0.01 s⁻¹.

B3: haloalkane dehalogenase (DhlA) (Xanthobacter autotrophicus; L262V) (protein)
chain: MINAIRTPDQRFSNLDQYPFSPNYLDDLPGYPGLRAHYLDEGNSDAEDVFLCLHGEPTWSYLYRKMIPVFAESGARVIAPDFFGFGKSDKPVDEEDYTFEFHRNFLLALIERLDLRNITLVVQDWGGFLGLTLPMADPSRFKRLIIMNACLMTDPVTQPAFSAFVTQPADGFTAWKYDLVTPSDLRLDQFMKRWAPTLTEAEASAYAAPFPDTSYQAGVRKFPKMVAQRDQACIDISTEAISFWQNDWNGQTFMAIGMKDKVLGPDVMYPMKALINGCPEPLEIADAGHFVQEFGEQVAREALKHFAETE
As to B3, in data set [1], the Km worked out at 0.25 ± 0.03 mM and the kcat was 0.25 ± 0.01 s⁻¹.

B4: haloalkane dehalogenase (DhlA) (Xanthobacter autotrophicus; F128L/L262I) (protein)
chain: MINAIRTPDQRFSNLDQYPFSPNYLDDLPGYPGLRAHYLDEGNSDAEDVFLCLHGEPTWSYLYRKMIPVFAESGARVIAPDFFGFGKSDKPVDEEDYTFEFHRNFLLALIERLDLRNITLVVQDWGGLLGLTLPMADPSRFKRLIIMNACLMTDPVTQPAFSAFVTQPADGFTAWKYDLVTPSDLRLDQFMKRWAPTLTEAEASAYAAPFPDTSYQAGVRKFPKMVAQRDQACIDISTEAISFWQNDWNGQTFMAIGMKDKILGPDVMYPMKALINGCPEPLEIADAGHFVQEFGEQVAREALKHFAETE
B4: in data set [1], the Km is 1.08 ± 0.10 mM and the kcat is 0.36 ± 0.02 s⁻¹.

B5: haloalkane dehalogenase (DhlA) (Xanthobacter autotrophicus; F128L) (protein)
chain: MINAIRTPDQRFSNLDQYPFSPNYLDDLPGYPGLRAHYLDEGNSDAEDVFLCLHGEPTWSYLYRKMIPVFAESGARVIAPDFFGFGKSDKPVDEEDYTFEFHRNFLLALIERLDLRNITLVVQDWGGLLGLTLPMADPSRFKRLIIMNACLMTDPVTQPAFSAFVTQPADGFTAWKYDLVTPSDLRLDQFMKRWAPTLTEAEASAYAAPFPDTSYQAGVRKFPKMVAQRDQACIDISTEAISFWQNDWNGQTFMAIGMKDKLLGPDVMYPMKALINGCPEPLEIADAGHFVQEFGEQVAREALKHFAETE
Consider B5, for which, in data set [1], the Km is recorded as 0.70 ± 0.03 mM and the kcat was found to be 0.05 ± 0.01 s⁻¹.

As usually defined, the Km is the concentration of substrate that gives half-maximal velocity. Usually kcat stands for the maximal rate divided by the concentration of active sites.
